Assay results published in patent US20210130436A1.

B1: PD-L2 H15Q IgV-Fc (Fc fusion, not shown: a dimerising Fc or GST)
chain: LFTVTVPKELYIIEQGSNVTLECNFDTGSHVNLGAITASLQKVENDTSPHRERATLLEEQLPLGKASFHIPQVQVRDEGQYQCIIIYGVAWDYKYLTLKVKA
B2: PD-L2 N32D/S67L/V89D IgV-Fc (Fc fusion, not shown: a dimerising Fc or GST)
chain: LFTVTVPKELYIIEHGSNVTLECNFDTGSHVDLGAITASLQKVENDTSPHRERATLLEEQLPLGKALFHIPQVQVRDEGQYQCIIIYGDAWDYKYLTLKVKA
B3: PD-L2 E44D/V89D/W91R IgV-Fc (Fc fusion, not shown: a dimerising Fc or GST)
chain: LFTVTVPKELYIIEHGSNVTLECNFDTGSHVNLGAITASLQKVDNDTSPHRERATLLEEQLPLGKASFHIPQVQVRDEGQYQCIIIYGDARDYKYLTLKVKA
B4: PD-L2 I13V/S67L/V89D IgV-Fc (Fc fusion, not shown: a dimerising Fc or GST)
chain: LFTVTVPKELYIVEHGSNVTLECNFDTGSHVNLGAITASLQKVENDTSPHRERATLLEEQLPLGKALFHIPQVQVRDEGQYQCIIIYGDAWDYKYLTLKVKA
B5: PD-L2 I13V/H15Q/T47A/H69L/R76G/V89D IgV-Fc (Fc fusion, not shown: a dimerising Fc or GST)
chain: LFTVTVPKELYIVEQGSNVTLECNFDTGSHVNLGAITASLQKVENDASPHRERATLLEEQLPLGKASFLIPQVQVGDEGQYQCIIIYGDAWDYKYLTLKVKA
B6: PD-L2 I13V/H15Q/S39I/E44D/S67L IgV-Fc (Fc fusion, not shown: a dimerising Fc or GST)
chain: LFTVTVPKELYIVEQGSNVTLECNFDTGSHVNLGAITAILQKVDNDTSPHRERATLLEEQLPLGKALFHIPQVQVRDEGQYQCIIIYGVAWDYKYLTLKVKA
B7: PD-L2 F2L/H15Q/D46E/T47A/Q72H/R76G/Q82R/V89D IgV-Fc (Fc fusion, not shown: a dimerising Fc or GST)
chain: LLTVTVPKELYIIEQGSNVTLECNFDTGSHVNLGAITASLQKVENEASPHRERATLLEEQLPLGKASFHIPHVQVGDEGQYRCIIIYGDAWDYKYLTLKVKA
B8: PD-L2 S67L/V89D IgV-Fc (Fc fusion, not shown: a dimerising Fc or GST)
chain: LFTVTVPKELYIIEHGSNVTLECNFDTGSHVNLGAITASLQKVENDTSPHRERATLLEEQLPLGKALFHIPQVQVRDEGQYQCIIIYGDAWDYKYLTLKVKA
B9: PD-L2 I13V/H15Q/V89D IgV-Fc (Fc fusion, not shown: a dimerising Fc or GST)
chain: LFTVTVPKELYIVEQGSNVTLECNFDTGSHVNLGAITASLQKVENDTSPHRERATLLEEQLPLGKASFHIPQVQVRDEGQYQCIIIYGDAWDYKYLTLKVKA
B10: PD-L2 I13V/S39I/E44D/Q82R/V89D IgV-Fc (Fc fusion, not shown: a dimerising Fc or GST)
chain: LFTVTVPKELYIVEHGSNVTLECNFDTGSHVNLGAITAILQKVDNDTSPHRERATLLEEQLPLGKASFHIPQVQVRDEGQYRCIIIYGDAWDYKYLTLKVKA
B11: PD-L2 I13V/H15Q/T47A/Q82R IgV-Fc (Fc fusion, not shown: a dimerising Fc or GST)
chain: LFTVTVPKELYIVEQGSNVTLECNFDTGSHVNLGAITASLQKVENDASPHRERATLLEEQLPLGKASFHIPQVQVRDEGQYRCIIIYGVAWDYKYLTLKVKA
B12: PD-L2 H15Q/T47A/S67L/Q82R/V89D IgV-Fc (Fc fusion, not shown: a dimerising Fc or GST)
chain: LFTVTVPKELYIIEQGSNVTLECNFDTGSHVNLGAITASLQKVENDASPHRERATLLEEQLPLGKALFHIPQVQVRDEGQYRCIIIYGDAWDYKYLTLKVKA
B13: PD-L2 H15Q/N24S/T47A/Q72H/R76G/V89D IgV-Fc (Fc fusion, not shown: a dimerising Fc or GST)
chain: LFTVTVPKELYIIEQGSNVTLECSFDTGSHVNLGAITASLQKVENDASPHRERATLLEEQLPLGKASFHIPHVQVGDEGQYQCIIIYGDAWDYKYLTLKVKA
B14: PD-L2 G28V/Q72H/R76G/I86T IgV-Fc (Fc fusion, not shown: a dimerising Fc or GST)
chain: LFTVTVPKELYIIEHGSNVTLECNFDTVSHVNLGAITASLQKVENDTSPHRERATLLEEQLPLGKASFHIPHVQVGDEGQYQCIITYGVAWDYKYLTLKVKA
B15: PD-L2 I13V/H15Q/Q72H/R76G/I86T IgV-Fc (Fc fusion, not shown: a dimerising Fc or GST)
chain: LFTVTVPKELYIVEQGSNVTLECNFDTGSHVNLGAITASLQKVENDTSPHRERATLLEEQLPLGKASFHIPHVQVGDEGQYQCIITYGVAWDYKYLTLKVKA
B16: PD-L2 I13V/H15Q/T37A/E44D/S48C/S67L/Q82R/V89D IgV-Fc (Fc fusion, not shown: a dimerising Fc or GST)
chain: LFTVTVPKELYIVEQGSNVTLECNFDTGSHVNLGAIAASLQKVDNDTCPHRERATLLEEQLPLGKALFHIPQVQVRDEGQYRCIIIYGDAWDYKYLTLKVKA
B17: PD-L2 V89D IgV-Fc (Fc fusion, not shown: a dimerising Fc or GST)
chain: LFTVTVPKELYIIEHGSNVTLECNFDTGSHVNLGAITASLQKVENDTSPHRERATLLEEQLPLGKASFHIPQVQVRDEGQYQCIIIYGDAWDYKYLTLKVKA
B18: PD-L2 S67L/I86T IgV-Fc (Fc fusion, not shown: a dimerising Fc or GST)
chain: LFTVTVPKELYIIEHGSNVTLECNFDTGSHVNLGAITASLQKVENDTSPHRERATLLEEQLPLGKALFHIPQVQVRDEGQYQCIITYGVAWDYKYLTLKVKA
B19: PD-L2 H15Q/Q72H/Q74R/R76G/I86T IgV-Fc (Fc fusion, not shown: a dimerising Fc or GST)
chain: LFTVTVPKELYIIEQGSNVTLECNFDTGSHVNLGAITASLQKVENDTSPHRERATLLEEQLPLGKASFHIPHVRVGDEGQYQCIITYGVAWDYKYLTLKVKA
B20: PD-L2 H15Q/T47A IgV-Fc (Fc fusion, not shown: a dimerising Fc or GST)
chain: LFTVTVPKELYIIEQGSNVTLECNFDTGSHVNLGAITASLQKVENDASPHRERATLLEEQLPLGKASFHIPQVQVRDEGQYQCIIIYGVAWDYKYLTLKVKA
B21: PD-L2 H15Q/T47A/H69L/Q82R/V89D IgV-Fc (Fc fusion, not shown: a dimerising Fc or GST)
chain: LFTVTVPKELYIIEQGSNVTLECNFDTGSHVNLGAITASLQKVENDASPHRERATLLEEQLPLGKASFLIPQVQVRDEGQYRCIIIYGDAWDYKYLTLKVKA
B22: PD-L2 H15Q/Q82R/V89D IgV-Fc (Fc fusion, not shown: a dimerising Fc or GST)
chain: LFTVTVPKELYIIEQGSNVTLECNFDTGSHVNLGAITASLQKVENDTSPHRERATLLEEQLPLGKASFHIPQVQVRDEGQYRCIIIYGDAWDYKYLTLKVKA
B23: PD-L2 H15Q/N18D/T47A/Q72H/V73A/R76G/I86T/V89D IgV-Fc (Fc fusion, not shown: a dimerising Fc or GST)
chain: LFTVTVPKELYIIEQGSDVTLECNFDTGSHVNLGAITASLQKVENDASPHRERATLLEEQLPLGKASFHIPHAQVGDEGQYQCIITYGDAWDYKYLTLKVKA
B24: PD-L2 Q82R/V89D IgV-Fc (Fc fusion, not shown: a dimerising Fc or GST)
chain: LFTVTVPKELYIIEHGSNVTLECNFDTGSHVNLGAITASLQKVENDTSPHRERATLLEEQLPLGKASFHIPQVQVRDEGQYRCIIIYGDAWDYKYLTLKVKA
B25: PD-L2 I13V/H15Q/T47A/R76G/V89D IgV-Fc (Fc fusion, not shown: a dimerising Fc or GST)
chain: LFTVTVPKELYIVEQGSNVTLECNFDTGSHVNLGAITASLQKVENDASPHRERATLLEEQLPLGKASFHIPQVQVGDEGQYQCIIIYGDAWDYKYLTLKVKA
B26: PD-L2 I13V/H15Q/V31A/N45S/Q82R/V89D IgV-Fc (Fc fusion, not shown: a dimerising Fc or GST)
chain: LFTVTVPKELYIVEQGSNVTLECNFDTGSHANLGAITASLQKVESDTSPHRERATLLEEQLPLGKASFHIPQVQVRDEGQYRCIIIYGDAWDYKYLTLKVKA
B27: PD-L2 H15Q/T47A/Q72H/R76G/I86T IgV-Fc (Fc fusion, not shown: a dimerising Fc or GST)
chain: LFTVTVPKELYIIEQGSNVTLECNFDTGSHVNLGAITASLQKVENDASPHRERATLLEEQLPLGKASFHIPHVQVGDEGQYQCIITYGVAWDYKYLTLKVKA
B28: PD-L2 H15Q/S67L/I86T IgV-Fc (Fc fusion, not shown: a dimerising Fc or GST)
chain: LFTVTVPKELYIIEQGSNVTLECNFDTGSHVNLGAITASLQKVENDTSPHRERATLLEEQLPLGKALFHIPQVQVRDEGQYQCIITYGVAWDYKYLTLKVKA
B29: PD-L2 H15Q/S67L/Q72H/R76G/V89D IgV-Fc (Fc fusion, not shown: a dimerising Fc or GST)
chain: LFTVTVPKELYIIEQGSNVTLECNFDTGSHVNLGAITASLQKVENDTSPHRERATLLEEQLPLGKALFHIPHVQVGDEGQYQCIIIYGDAWDYKYLTLKVKA
B30: PD-L2 I13V/H15Q/R76G/D77N/Q82R/V89D IgV-Fc (Fc fusion, not shown: a dimerising Fc or GST)
chain: LFTVTVPKELYIVEQGSNVTLECNFDTGSHVNLGAITASLQKVENDTSPHRERATLLEEQLPLGKASFHIPQVQVGNEGQYRCIIIYGDAWDYKYLTLKVKA
B31: PD-L2 H15Q/V31M/S67L/Q82R/V89D IgV-Fc (Fc fusion, not shown: a dimerising Fc or GST)
chain: LFTVTVPKELYIIEQGSNVTLECNFDTGSHMNLGAITASLQKVENDTSPHRERATLLEEQLPLGKALFHIPQVQVRDEGQYRCIIIYGDAWDYKYLTLKVKA
B32: PD-L2 I13V/H15Q/Q82R/V89D IgV-Fc (Fc fusion, not shown: a dimerising Fc or GST)
chain: LFTVTVPKELYIVEQGSNVTLECNFDTGSHVNLGAITASLQKVENDTSPHRERATLLEEQLPLGKASFHIPQVQVRDEGQYRCIIIYGDAWDYKYLTLKVKA
B33: PD-L2 I13V/H15Q/T47A/Q72H/R76G/I86T IgV-Fc (Fc fusion, not shown: a dimerising Fc or GST)
chain: LFTVTVPKELYIVEQGSNVTLECNFDTGSHVNLGAITASLQKVENDASPHRERATLLEEQLPLGKASFHIPHVQVGDEGQYQCIITYGVAWDYKYLTLKVKA
B34: PD-L2 I13V/H15Q/T47A/E58G/S67L/Q82R/V89D IgV-Fc (Fc fusion, not shown: a dimerising Fc or GST)
chain: LFTVTVPKELYIVEQGSNVTLECNFDTGSHVNLGAITASLQKVENDASPHRERATLLGEQLPLGKALFHIPQVQVRDEGQYRCIIIYGDAWDYKYLTLKVKA
B35: PD-L2 H15Q/S39I/S67L/V89D IgV-Fc (Fc fusion, not shown: a dimerising Fc or GST)
chain: LFTVTVPKELYIIEQGSNVTLECNFDTGSHVNLGAITAILQKVENDTSPHRERATLLEEQLPLGKALFHIPQVQVRDEGQYQCIIIYGDAWDYKYLTLKVKA

Biological target: PD-1 (PDCD1) (Homo sapiens (Human)) (UniProt Q15116)
Sequence (Q15116 21-288): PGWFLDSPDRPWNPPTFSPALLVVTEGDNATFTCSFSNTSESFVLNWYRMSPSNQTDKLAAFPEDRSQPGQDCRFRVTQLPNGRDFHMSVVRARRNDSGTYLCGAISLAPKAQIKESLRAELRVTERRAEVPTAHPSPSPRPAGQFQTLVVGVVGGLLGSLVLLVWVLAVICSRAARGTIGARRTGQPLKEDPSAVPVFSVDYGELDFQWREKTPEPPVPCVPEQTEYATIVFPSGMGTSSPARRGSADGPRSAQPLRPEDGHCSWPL
Assay: cell-based or functional assay

| IFN gamma levels pg/mL (MLR) [pg/mL] | Binder |
| --- | --- |
| 1820 | B1 |
| 1190 | B2 |
| 1560 | B3 |
| 868 | B4 |
| 1080 | B5 |
| 1260 | B6 |
| 1170 | B7 |
| 1230 | B8 |
| 1120 | B9 |
| 936 | B10 |
| 1700 | B11 |
| 1200 | B12 |
| 1090 | B13 |
| 1780 | B14 |
| 1220 | B15 |
| 1750 | B16 |
| 1170 | B17 |
| 1020 | B18 |

| IFN gamma levels pg/mL (MLR) [pg/mL] | Binder |
| --- | --- |
| 934 | B19 |
| 1640 | B20 |
| 1730 | B21 |
| 1080 | B22 |
| 1070 | B23 |
| 1620 | B24 |
| 1250 | B25 |
| 1720 | B26 |
| 1600 | B27 |
| 1030 | B28 |
| 1060 | B29 |
| 1190 | B30 |
| 1210 | B31 |
| 1600 | B32 |
| 1090 | B33 |
| 836 | B34 |
| 1230 | B35 |
